Biological target: T1, DBINO domain of dIno80 (Drosophila melanogaster, UniProt Q9VDY1 228-484)
T1 sequence: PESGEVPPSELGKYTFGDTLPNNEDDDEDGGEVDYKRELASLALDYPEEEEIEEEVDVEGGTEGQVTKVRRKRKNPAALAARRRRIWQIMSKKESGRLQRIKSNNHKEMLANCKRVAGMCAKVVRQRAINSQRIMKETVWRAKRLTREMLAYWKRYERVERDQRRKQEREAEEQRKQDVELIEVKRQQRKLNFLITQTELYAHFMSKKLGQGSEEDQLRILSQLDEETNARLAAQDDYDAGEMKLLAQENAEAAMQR
Assay: fluorescent intercalator displacement

B1: Hs.con (3 copies of Ino80 motif, 33-mer) (dsDNA)
DNA 1: CCCCGTCAGCCCCCCGTCAGCCCCCCGTCAGCC
DNA 2: GGCTGACGGGGGGCTGACGGGGGGCTGACGGGG
Kd: 10 µM

Source: article doi:10.1101/519959
